PMC6403000

How the values were obtained:
Assay in all cases: SEC
[1] = target: CtHsp104 lacking the NTD (residues 153-882) (Calcarisporiella thermophila)
[2] = target: CtHsp104 lacking the NTD and the CTT (residues 153-864) (Calcarisporiella thermophila)
[3] = target: CtHsp104 lacking the NTD with mutated Walker B motifs (E275Q:E679Q) (Calcarisporiella thermophila)
[4] = target: CtHsp104 lacking the NTD with mutated arginine fingers (R328M/R757M) (Calcarisporiella thermophila)

With “CtHsp104 lacking the NTD (residues 153-882) (domain or fragment)” the stoichiometry N [1] was 6.
With “CtHsp104 lacking the NTD and the CTT (residues 153-864) (domain or fragment)” the stoichiometry N [2] was 6.
“CtHsp104 lacking the NTD with mutated Walker B motifs (E275Q:E679Q) (domain or fragment)” showed a stoichiometry N [3] of 6.
In the case of “CtHsp104 lacking the NTD with mutated arginine fingers (R328M/R757M) (domain or fragment)”, the stoichiometry N [4] is reported as 6.
